Measured values as given in patent publication US20130129719, “HER2 NUCLEIC ACID APTAMERS” (UNIVERSITY OF IOWA RESEARCH FOUNDATION, published 2013).

T1: glyoxylase (negative control protein) (Homo sapiens, UniProt Q04760 Q04760:2-184)
T1 sequence: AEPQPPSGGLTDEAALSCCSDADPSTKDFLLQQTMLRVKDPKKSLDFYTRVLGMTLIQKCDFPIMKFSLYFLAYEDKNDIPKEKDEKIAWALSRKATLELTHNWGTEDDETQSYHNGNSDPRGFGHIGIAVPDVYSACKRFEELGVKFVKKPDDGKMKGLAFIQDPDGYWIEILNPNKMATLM

B1: C1 (ssRNA)
RNA: GGGAGGACGAUGCGGCUGUCUACCUUCUACUGCCGCAGACGACUCGCCCGA
B2: B1 (ssRNA)
RNA: GGGAGGACGAUGCGGUCUGUUGUGCUUGAUAUGCCCCAGACGACUCGCCCGA
B3: E1 (ssRNA)
RNA: GGGAGGACGAUGCGGUCCUGUCGUCUGUUCGUCCCCAGACGACUCGCCCGA
B4: D1 (ssRNA)
RNA: GGGAGGACGAUGCGGAUGUAUGUUGGGAGCCACGCCAGACGACUCGCCCGA

molecular target: HER2 extracellular domain (HER2-ECD) (Rattus norvegicus, UniProt P06494 P06494:23-654); experiment: FP; selection buffer, room temperature 30 min, protein up to 1 uM; details: label: 5'-FAM
Description: (§1) FIG. 3. Binding of HER2-aptamers to recombinant HER2-ECD protein. RNA aptamers labeled with FAM at the 5′ end were incubated with recombinant rat HER2-ECD protein in increasing concentrations up to 1 μM at room temperature for 30 minutes in 100 μL reaction volumes. A non-target protein (glyoxylase) is used as a negative control in these assays (Control protein). The binding reaction is performed in the buffer in which the selection was performed. Fluorescence polarization (FP) values for each RNA concentration are read using an Analyst HT plate reader by LJL Biosystems. FP is given by P=(V−H)/(V+H), where V is the vertical component of polarized light, and H is the horizontal component of polarized light. Values of polarization range from 0 to 500 mP, with 0 mP being no binding of the RNA and 500 mP representing maximal binding. The curve is fit with a one-site binding model using non-linear regression software. This confirms the binding of the HER2 aptamers to […] HER2 using Fluorescence Polarization. […] This experiment was done several times and was reproducible.
(§2) The inventors next verified that several of the internalizing aptamers were binding specifically to HER2 using fluorescence polarization (FP). This was done by measuring binding of the RNAs to recombinant purified rat HER2-ECD (extra cellular domain) (FIG. 3). […] A control protein (human glyoxylase) was used as a negative control for binding in these studies.

HER2 extracellular domain (HER2-ECD), sequence (P06494 23-654, one chain of several): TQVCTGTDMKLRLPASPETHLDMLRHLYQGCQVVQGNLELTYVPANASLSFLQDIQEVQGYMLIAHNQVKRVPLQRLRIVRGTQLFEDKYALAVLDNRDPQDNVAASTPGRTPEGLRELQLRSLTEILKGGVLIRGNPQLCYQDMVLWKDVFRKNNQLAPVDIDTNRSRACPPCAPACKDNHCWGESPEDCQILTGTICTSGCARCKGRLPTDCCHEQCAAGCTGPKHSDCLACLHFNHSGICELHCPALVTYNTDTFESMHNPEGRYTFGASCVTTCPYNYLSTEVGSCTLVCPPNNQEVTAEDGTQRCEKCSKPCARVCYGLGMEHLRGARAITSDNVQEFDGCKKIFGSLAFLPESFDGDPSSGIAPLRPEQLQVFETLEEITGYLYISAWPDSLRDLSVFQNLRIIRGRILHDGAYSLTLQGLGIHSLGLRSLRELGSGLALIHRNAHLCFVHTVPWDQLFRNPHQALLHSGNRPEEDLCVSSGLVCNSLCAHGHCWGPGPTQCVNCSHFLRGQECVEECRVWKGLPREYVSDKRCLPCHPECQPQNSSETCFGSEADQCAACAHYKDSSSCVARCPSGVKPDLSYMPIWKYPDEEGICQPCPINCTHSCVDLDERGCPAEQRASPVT

Binder | binding result
B1 | binds
B2 | binds
B3 | binds
GGGAGGACGAUGCGGGACUGUAUGGGGCUCUGUGCAGACGACUCGCCCGA (ssRNA) [A2] | binds
B4 | binds

molecular target: T1, glyoxylase (negative control protein); experiment: FP; specificity control, room temperature; details: tags: His-tag; label: 5'-FAM
Description: as §1, §2

Binder | binding result
B1 | no binding
B2 | no binding
B3 | no binding
GGGAGGACGAUGCGGGACUGUAUGGGGCUCUGUGCAGACGACUCGCCCGA (ssRNA) [A2] | no binding
B4 | no binding
